Experimental data as given in the DeepSol protein solubility set.

assay: soluble on expression in E. coli; label from the status in PepcDB or PDB records

**Q.** For “MGSDKIHHHHHHMSRKDVVAGIRNEEGISTVLDLLKQSFGERFQTGQSFREQHAHTTTYLPAQLPDGVVFVESAEDVKTVVRTCAQHKVPMVPFGVGSSLEGQVNAAHGGISIDFTRMDKVLEVNAEDLDCTVQPGVTREALNTYLRDTGLFFPIDPGANASIGGMASTRASGTNAVRYGTMKDNVMALTVVTANGEEIRTAHRARKSSAGYDLTRLFVGAEGTLGVITSITLKLQGIPEKIGGGVCAFADVKSACDAVIMTIQMGIPVARIELLDAMQVRACNAYSNLSLPERPTLFLEFHGTEQTVALQAQQFAAIAEEYGAEDLRFTSDPQERAQLWKARHNAYWAGRALAPELAGLSTDVCVPISKLAECVAETQADIAETGLLAPIVGHVGDGNFHLLILFDDKDAENVDKVEAFMARLNERALAMDGTCTGEHGVGQGKMSYLEAELGGALDVMRQVKRGLDPDNLFNPGKIFRL”, which “soluble on expression in E. coli” value is on record?
**A.** not soluble

**Q.** Which “soluble on expression in E. coli” value does the source give for “MCISKIDMAKVKKFFKEYLFAKFQCKNRELYRQLKDYDPKDDQKYLKWEHFVEYVEQVLEALDKTSAQIIKEIYIQNKRICELPYSYSTYYAYRKKAIIELLAYLDLKI” here?
**A.** soluble

**Q.** With “MANQLAAVLGTGQTHYVAKRHDVSMAGLVREAIDRAMEDARVGWDDIDAVVIGKAPDLFEGSMMPELAMSDALGANGKPLLRVHTAGSVGGSTAVVASSLVKSGVHKRVLTVAWEKQSESNAMWALSTPIPFHMPVGAGAGGYFAPHVRSYIRRSGAPDHIGAMVAVKDRLNGSLNPYAHLKQPDITLESVQASQMLWDPIRYDETCPSSDGACAMVIGNEEAAEQVTADGREVAWIHATAMRTEPTTFAGRDQVNPQAGRDAAAALWKAAGIKDPLDEIDVAEIYVPFSWFEPMWLENLGFVSEGEGWKLTEAGETAIGGRLPLNASGGVLSSNPIGASGMIRFAESAMQVMHRAGDHQVKDARKALGHAYGGGSQYFSMWVVGSDRPNN” as the sequence, how does the “soluble on expression in E. coli” value read?
**A.** not soluble

**Q.** For “MQNTTHDNVILELTVRNHPGVMTHVCGLFARRAFNVEGILCLPIQDSDKSHIWLLVNDDQRLEQMISQIDKLEDVVKVQRNQSDPTMFNKIAVFFQ”, which “soluble on expression in E. coli” value is on record?
**A.** not soluble

**Q.** With “PRVELEIPEDVDAEQDHLDITVEGDNGSVTRRLWYPDIDVSVDGDTVVIESDEDNAKTMSTIGTFQSHIENMFHGVTEGWEYGMEVFYSHFPMQVNVEGDEVVIENFLGEKAPRRTTIHGDTDVEIDGEELTVSGPDIEAVGQTAADIEQLTRINDKDVRVFQDGVYITRKPNRGDA” as the sequence, how does the “soluble on expression in E. coli” value read?
**A.** soluble

**Q.** For “GSQDVKCSLGYFPCGNITKCLPQLLHCNGVDDCGNQADEDNCG”, which “soluble on expression in E. coli” value is on record?
**A.** soluble

**Q.** Which “soluble on expression in E. coli” value does the source give for “MVVLYNECLKNHAVSLGGHALDGCGEFTPKSTTILTDPPSLRCDACGCHRNFHRRSPSDGFSQHRSPPSPLQLQPLAPVPNLLLSLSSGFFGPSDQEVKNKFTVERDVRKTAMIKKHKRTKFTAEQKVKMRGFAERAGWKINGWDEKWVREFCSEVGIERKVLKVWIHNNKYFNNGRSRDTTSSMSLNLKL” here?
**A.** soluble

**Q.** For “MGSDKIHHHHHHMFEHRFKDLHHTYRAIREVESEHHNIANIIKYVHKNNRVRQPSVGSHIRLRKKWEVEKSTLHARLSWDLERMQVWQLEHLSKLVDFAYNYVPFYHALYHEAGFRTGDIVTWSDFEKLPIVDKKMLVDNRSALCASIGFAPDNHHVARTSGSSGINFTIVQDDTSVDTRVVLNLRQTEMMVGHALSPDDWRYGIYLASERFTSLAGGYPVITVGQDCPAVDVFEHIQKIKPKILYAFPSYLKRLQVCAGDLTEWGVECICTNSEPSTQEERQVFARHFGVPVLDEYSSEEFSLIATECRYGRYHIVEDNLKAEVCNIDPEGWGTLVGTSFANTYMPFIRYSQGDIVKLDARQILCECGTHFRYLDTFHGRADQFLESKNNGKIPPDKLMGLYDSTLILETSGVKEFQIVQTHLDKIEIRIVLMDKEGAYNYALMSNFVSGIKQLFSGDPLTVSVHVLESIPAAKSYKRRLIVNMINS”, which “soluble on expression in E. coli” value is on record?
**A.** not soluble

**Q.** For “MGSDKIHHHHHHMTKVAHLTSVHSRYDIRIFRKQCRTLSQYGYDVYLVVADGKGDEVKDGVRIVDVGVLSGRLNRILKTTRKIYEQALALGADVYHFHDPELIPVGLRLKKQGKQVIFDSHEDVPKQLLSKPYMRPFLRRVVAVLFSCYEKYACPKLDAVLTATPHIREKFKNINGNVLDINNFPMLGELDAMVPWASKKTEVCYVGGITSIRGVREVVKSLECLKSSARLNLVGKFSEPEIEKEVRALKGWNSVNEHGQLDREDVRRVLGDSVAGLVTFLPMPNHVDAQPNKMFEYMSSGIPVIASNFPLWREIVEGSNCGICVDPLSPAAIAEAIDYLVSNPCEAAALGRNGQRAVNERYNWDLEGRKLARFYSDLLSKRDSI”, which “soluble on expression in E. coli” value is on record?
**A.** not soluble

**Q.** Which “soluble on expression in E. coli” value does the source give for “MAHHHHHHMSDSEWSSDSGVSNAEAIAAASLNKHLGELMTLQHPSRVTHRRPAYATSEGTTASSATISHTPRVSGEAPRKQARMDISSLIRQALSQSSAHCTSANVDEVAGRVVAALRQKAGGAEVARAVTRALADPLNEELRESVLSGLLRPEELVALDEVSLLNQAERSVLAKARRERLNQHSVEYLERLNLTVTNMLTCPECRSHECYANFRFTDFVKWQGDDQTPTLQRCCRCSVSFCNERGKRAASAPGACLCAWVAVKVLSATTASRPCIHPSSNRHRTARRGSTRETGKISRFSSCRTRHHFCQKR” here?
**A.** not soluble

**Q.** For “MSGNPGSSLSALRPTPPERGSFPLDHDGECTKYMQEYLKCMQLVQNENAMNCRLLAKDYLRCRMDHQLMDYDEWSHLGLPEDAPGNNGKTIKDATDNK”, which “soluble on expression in E. coli” value is on record?
**A.** not soluble

**Q.** For “MGSDKIHHHHHHMPRPAPRVTNSPMNTSPTWGVVATVKAPEHEILRFAAWHLELGAHRLFLYLDDPDPAVFARLKAHPRIRVFACDDSYWQRRKLSRPVKHQARQTMNARHAYNRADVDWLAHIDVDEFIWSETPIAAVLSGLPDDTLCARMRPIEALAGGDALYKAFIPGGPARDGIVRRLYPTFGAFVKGGFMSHVAGKVFARTGMEKVDFRIHNIFRNKEMNPHQVELDMVDLCHRHGADWDHWIAAYRYRIAQGSYRPDLAPNVPREAGGLSMHELLSGIEEEQGEDGLRAFFDELNACAPEGRARLRAEGMLKHRPLDLDGAMQKQFPK”, which “soluble on expression in E. coli” value is on record?
**A.** not soluble

**Q.** For “SLKGSSAQVLVVEGEQGLNNDLSHSLEANGYLVTQCFNGKALQKEGLDDQLDLIILGATSESTEADLIQSIVMLREAVSTPIMLLGQKDCVESRIAFYTAGVDDYLTKPVNFSEFLIRVAVILKRVCSDSQMPKHADLLSGLDFEMDKRKGCIRSDEVELLLTPVEFKLLWALVSSGGRVLTKAFLYRNVLNRDFVQHDRSVDVHISRLRAKLSGVGVDTSRLETVHGEGYCYKEG”, which “soluble on expression in E. coli” value is on record?
**A.** soluble

**Q.** With “MSLTAGKMNVKEKIKDIHFYRAVSDISRPIADSTHTISQIGFYIVELMTAEGVRGQGYVLSFHYSPGAMEGALRDVCSFISAGEYAVYDTVLARADWDREAEYFGNTGINNCAIAAVNLAMWDAWGHTCRQPVWKMLGANRRRIPVYGSGGWISYTDQELLEEVLDYKKRGFKAVKIKVGSGSIERDAERLAKCREALGDSVKIMMDANQGFNVPDALELARRASSMGIQWFEEPVVHTDYAGYQLLRNQCGIALAMGEREYDFEALKQLSVRNALDLWQPDIVRLGGVEAWRESAALAEAFGLPVLPHYYKDYDVPLLCTVRSPYGAESFDWIDGIIDNAMEIENGFASPREGDGWGFRFREECMTEVEGHHHHHH” as the sequence, how does the “soluble on expression in E. coli” value read?
**A.** soluble

**Q.** For “EVIAAYIEGIKKAAENGLNVSQIHSVASFFVSRLDTEVDKRLEQIGSDEALSLRGKAGVANAQRAYAVFLEAFQAADLPVGAHVQRPLWASTGVKNPDYSPTFYVSELAGPDTVNTMPESTIDAVLAADDIHGDTLSSSSDSANEIFTRISQTGIDFEDVFAVLEQEGVDKFVAAWSDLLDSMESRLK”, which “soluble on expression in E. coli” value is on record?
**A.** not soluble

**Q.** With “MPSENSRPMPSFPRRRESRPWDNGNIQRLSESPRFWIPTFVGMTGCRFVGMTWCRFPYGWIRHSRAGGNLERKI” as the sequence, how does the “soluble on expression in E. coli” value read?
**A.** not soluble

**Q.** Which “soluble on expression in E. coli” value does the source give for “MGSDKIHHHHHHMGFVKPFSKINGSIIMVILGLLASACGQSGSETGGLVDANEPVSPQPNLGEQQGVLEQNLPVPNNQQTDYFRVILYGNSHVSGLPSLIQLLINTGVPQVRVEVKNVGGGFLDESYYNDAYQARLTATPWTHAIFQGQKYSQSGTSIYPTTAAQKWLDKAKSLGITPILFPEHPQDGKLEEGEYVYQLHQGITSMQSSCLAPIPLVWERVIQLLPDVHLHAPDGNHASSLGNFLTALVFYEVITGRSADLLPYLSNIAISEQIQSIFGQVVSEVLADKPACPTF” here?
**A.** not soluble

**Q.** With “MGSDKIHHHHHHMDFFQSKFLYGKKQSQFGIFRMPRNTTNCPVVVTIHGGFWKAEYGLEEIVPLDEDLVRRGYATWNVEYRRIGENGGGWPGTFSDVIDAVNYLAFLKEDFPLDLSRVVILGHSAGGHLALWLASRWNTKQADQMENVLHTSIKAIISLAGVSNLEEMWRIESKGKTSNNVSSFLGGTPEEASDRYHLASPYELLPLHVRQILVHGGSDQEVPLDLTLGYYKKAIRLADDVGLISDSRSDHFDLIDPFSSIWLSSADSLKNIINS” as the sequence, how does the “soluble on expression in E. coli” value read?
**A.** not soluble

**Q.** For “VTGPGSPPLAWTELERLVAAGDVDTVIVAFTDMQGRLAGKRISGRHFVDDIATRGVECCSYLLAVDVDLNTVPGYAMASWDTGYGDMVMTPDLSTLRLIPWLPGTALVIADLVWADGSEVAVSPRSILRRQLDRLKARGLVADVATELEFIVFDQPYRQAWASGYRGLTPASDYNIDYAILASSRMEPLLRDIRLGMAGAGLRFEAVKGECNMGQQEIGFRYDEALVTCDNHAIYKNGAKEIADQHGKSLTFMAKYDEREGNSCHIHVSLRGTDGSAVFADSNGPHGMSSMFRSFVAGQLATLREFTLCYAPTINSYKRFADSSFAPTALAWGLDNRTCALRVVGHGQNIRVECRVPGGDVNQYLAVAALIAGGLYGIERGLQLPEPCVGNAYQGADVERLPVTLADAAVLFEDSALVREAFGEDVVAHYLNNARVELAAFNAAVTDWERIRGFERL”, which “soluble on expression in E. coli” value is on record?
**A.** not soluble

**Q.** Which “soluble on expression in E. coli” value does the source give for “WQGLSSKGDLPQVEITKAFFAKQADEVTLQQADVVLVLQQEDGWLYGERLRDGETGWFPEDFARFI” here?
**A.** soluble

**Q.** For “GSHNSHMKLQEVEIRNKDLEGQLSEMEQRLEKSQSEQDAFRSNLKTLLEILDGKIFELTELRDNLAKLLECS”, which “soluble on expression in E. coli” value is on record?
**A.** soluble

**Q.** With “MDTQQIDVMVADASHEVYVDTILETIRNAAAVRGTGIAERTHEYVATKMKEGKAIIALCGDTFAGFTYIESWGNKQYVATSGLIVHPDFRGLGLAKRIKQASFQLARLRWPKAKIFSLTSGAAVMKMNTELGYVPVTFNELTDDEAFWKGCEGCTNHDILAAKNRKFCICTAMLYDPTDPRNIKKEQERNNI” as the sequence, how does the “soluble on expression in E. coli” value read?
**A.** not soluble

**Q.** With “MSLIRDMQLSRFSIPFAAPIRVGGQELNKRDGLLVAVRDDQGHTGWGEAAPLPGLDTISLDQCQGELCPIRKAFADQALNWDSFSLTAPMMGLCPEIPGLNPISAFGVESALAWLGLCSGQWGIAGADELGIAVNGLFVPSPDPDRLPAQAKQLKASGFSTVKIKIGRMDSDDEIRQILELDSLFNHKLALRLDANRSLDFAQYQSYFEALKHLNIEYVEEPLKPEYDFFEAAQIPWPLALDESLESYANLDEPFPKSLGAVILKPGSFQGVHGMAQAMEHLHTQGIKTVLSSSFNNTMGMSMLGLLANLYAPETAHGLDTLKYFQPSDLSLGLSIAKGRMAIPVDLFGGGLNLASGLMEEIAEGHHHHHH” as the sequence, how does the “soluble on expression in E. coli” value read?
**A.** soluble

**Q.** Which “soluble on expression in E. coli” value does the source give for “MGSDKIHHHHHHMKLMIGKLFWDTGASMPCYPSLENDMICDMLVVGSGEAGAQIAYSLVKMGMRVTLIEKNMISCGSTAANTGLLQFLHDKSLTSLIHTFGEEKGVRAYKLCYEALRTMEKVVPTLDIDPQFIPRNSLYYASKSEDVSFLQEEYKTLQNYEFPVEYFTASDIKERYPFTRQAALYTHGDAEVNPYLLAHSLLHKANQMGANIYEHTEAIHIKKRQNDLICYTKTGNQIVAKNIIMATGYEALFGKKEKNTTVETSYAVVTNKVDSFEGWHEQSLIWETARPYLYFRTYENRIIVGGLDEAMKIQTIGDTKLLHKRDVLINIIKEMFPQYKDIQAEYYWAAAFGGSHDGLPILKEDNKIHNLFYALPYGGNGTVYGMVFAKIFEQLFTNKESEDFSLFNR” here?
**A.** not soluble
